The target in this assay is endogenous DNMT1 (human (endogenous in HeLa, HEK293, …, UniProt P26358 1-1616)). The experiment in a line: cell-based or functional assay.
Sequence of endogenous DNMT1 (human (P26358 whole entry): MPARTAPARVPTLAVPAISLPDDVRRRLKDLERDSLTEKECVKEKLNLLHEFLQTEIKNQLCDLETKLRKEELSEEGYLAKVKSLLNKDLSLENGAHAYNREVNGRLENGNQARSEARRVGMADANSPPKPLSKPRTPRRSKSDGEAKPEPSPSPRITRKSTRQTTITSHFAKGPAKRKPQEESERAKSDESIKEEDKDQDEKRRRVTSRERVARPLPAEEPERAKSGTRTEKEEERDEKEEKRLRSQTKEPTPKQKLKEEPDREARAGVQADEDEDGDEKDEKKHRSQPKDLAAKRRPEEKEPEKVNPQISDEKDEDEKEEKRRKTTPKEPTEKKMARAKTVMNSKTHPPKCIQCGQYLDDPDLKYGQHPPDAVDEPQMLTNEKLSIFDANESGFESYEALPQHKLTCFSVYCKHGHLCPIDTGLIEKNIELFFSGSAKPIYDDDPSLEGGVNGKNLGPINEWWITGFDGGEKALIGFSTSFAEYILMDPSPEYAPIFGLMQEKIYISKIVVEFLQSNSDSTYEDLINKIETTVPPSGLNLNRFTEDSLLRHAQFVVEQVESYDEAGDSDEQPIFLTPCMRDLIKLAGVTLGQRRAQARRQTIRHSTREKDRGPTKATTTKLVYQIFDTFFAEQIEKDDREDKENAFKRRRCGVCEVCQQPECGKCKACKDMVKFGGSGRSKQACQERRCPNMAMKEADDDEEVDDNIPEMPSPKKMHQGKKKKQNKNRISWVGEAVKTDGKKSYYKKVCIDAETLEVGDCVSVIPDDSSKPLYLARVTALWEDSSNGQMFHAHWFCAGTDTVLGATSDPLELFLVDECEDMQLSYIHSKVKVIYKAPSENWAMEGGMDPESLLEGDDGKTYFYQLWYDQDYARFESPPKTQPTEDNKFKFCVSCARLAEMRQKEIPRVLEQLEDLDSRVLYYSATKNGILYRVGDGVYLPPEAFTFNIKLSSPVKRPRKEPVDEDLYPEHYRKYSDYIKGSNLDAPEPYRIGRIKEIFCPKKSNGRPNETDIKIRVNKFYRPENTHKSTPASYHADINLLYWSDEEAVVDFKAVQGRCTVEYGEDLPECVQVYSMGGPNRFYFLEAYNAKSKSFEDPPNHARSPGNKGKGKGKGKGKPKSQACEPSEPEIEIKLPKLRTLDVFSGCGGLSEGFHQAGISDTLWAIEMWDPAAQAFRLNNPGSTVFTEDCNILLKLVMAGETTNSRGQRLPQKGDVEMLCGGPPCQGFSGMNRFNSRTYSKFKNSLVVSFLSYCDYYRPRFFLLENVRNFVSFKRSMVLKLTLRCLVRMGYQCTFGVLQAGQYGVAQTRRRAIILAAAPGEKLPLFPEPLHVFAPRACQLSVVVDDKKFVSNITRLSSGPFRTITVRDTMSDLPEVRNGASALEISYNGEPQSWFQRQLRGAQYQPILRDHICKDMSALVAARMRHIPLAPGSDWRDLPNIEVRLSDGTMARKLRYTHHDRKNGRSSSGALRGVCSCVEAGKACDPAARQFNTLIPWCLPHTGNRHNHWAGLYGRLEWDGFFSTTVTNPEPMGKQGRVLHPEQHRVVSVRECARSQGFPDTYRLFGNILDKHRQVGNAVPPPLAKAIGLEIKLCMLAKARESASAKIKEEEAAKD

B1: endogenous PHF20L1a (natural protein, UniProt A8MW92 1-1017, looked up)
chain: MSKKPPNRPGITFEIGARLEALDYLQKWYPSRIEKIDYEEGKMLVHFERWSHRYDEWIYWDSNRLRPLERPALRKEGLKDEEDFFDFKAGEEVLARWTDCRYYPAKIEAINKEGTFTVQFYDGVIRCLKRMHIKAMPEDAKGQVKSQHPLSWCCPIDPAGSCNQSMGSEDWIALVKAAAAAAAKNKTGSKPRTSANSNKDKDKDERKWFKVPSKKEETSTCIATPDVEKKEDLPTSSETFGLHVENVPKMVFPQPESTLSNKRKNNQGNSFQAKRARLNKITGLLASKAVGVDGAEKKEDYNETAPMLEQAISPKPQSQKKNEADISSSANTQKPALLSSTLSSGKARSKKCKHESGDSSGCIKPPKSPLSPELIQVEDLTLVSQLSSSVINKTSPPQPVNPPRPFKHSERRRRSQRLATLPMPDDSVEKVSSPSPATDGKVFSISSQNQQESSVPEVPDVAHLPLEKLGPCLPLDLSRGSEVTAPVASDSSYRNECPRAEKEDTQMLPNPSSKAIADGRGAPAAAGISKTEKKVKLEDKSSTAFGKRKEKDKERREKRDKDHYRPKQKKKKKKKKKSKQHDYSDYEDSSLEFLERCSSPLTRSSGSSLASRSMFTEKTTTYQYPRAILSVDLSGENLSDVDFLDDSSTESLLLSGDEYNQDFDSTNFEESQDEDDALNEIVRCICEMDEENGFMIQCEECLCWQHSVCMGLLEESIPEQYICYICRDPPGQRWSAKYRYDKEWLNNGRMCGLSFFKENYSHLNAKKIVSTHHLLADVYGVTEVLHGLQLKIGILKNKHHPDLHLWACSGKRKDQDQIIAGVEKKIAQDTVNREEKKYVQNHKEPPRLPLKMEGTYITSEHSYQKPQSFGQDCKSLADPGSSDDDDVSSLEEEQEFHMRSKNSLQYSAKEHGMPEKNPAEGNTVFVYNDKKGTEDPGDSHLQWQLNLLTHIENVQNEVTSRMDLIEKEVDVLESWLDFTGELEPPDPLARLPQLKRHIKQLLIDMGKVQQIATLCSV
On to B1, for which the “half-life of DNMT1 in HeLa cells with cycloheximide, 60 uM UNC1215 (MBT domain inhibitor) against ethanol” value is about 50%.

The record behind these values is PMC3961655, “Methyllysine Reader Plant Homeodomain (PHD) Finger Protein 20-like 1 (PHF20L1) Antagonizes DNA (Cytosine-5) Methyltransferase 1 (DNMT1) Proteasomal Degradation*” (The Journal of Biological Chemistry, 2014).
